{"source": "paper doi:10.1101/2022.08.10.503460", "key": {"[1]": {"target": "Pcdh15 EC1-11 PICA", "test": "AFM force-clamp spectroscopy"}, "[2]": {"target": "Mouse Cdh23 EC1-2 (mouse) (UniProt Q99PF4)", "sequence (Q99PF4 24-228)": "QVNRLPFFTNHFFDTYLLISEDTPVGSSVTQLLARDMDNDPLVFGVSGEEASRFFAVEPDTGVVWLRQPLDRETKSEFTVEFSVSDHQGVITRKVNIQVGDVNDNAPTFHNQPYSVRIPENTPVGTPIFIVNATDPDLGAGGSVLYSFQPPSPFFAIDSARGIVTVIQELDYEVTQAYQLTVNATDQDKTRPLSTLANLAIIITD", "test": "AFM force-clamp spectroscopy"}, "[3]": {"target": "Cdh23 EC1-5", "test": "AFM force-clamp spectroscopy"}, "[4]": {"target": "full-length Cdh23 EC1-27", "test": "AFM force-clamp spectroscopy"}, "[5]": {"target": "Pcdh15 EC1-11 PICA"}}}
{"substance": "Cdh23 EC1-27 Fc dimer (Fc fusion)", "values": [{"measurement": "intrinsic lifetime at no force (τ0)", "setting": "[1]", "value": 30, "unit": "s"}]}
{"substance": "Pcdh15 EC1-2 (R113G), Q99PJ1 27-259 (domain or fragment; other documents disagree on this pair)", "values": [{"measurement": "koff", "setting": "[2]", "value": 0.3, "unit": "s⁻¹"}]}
{"substance": "Mouse Pcdh15 EC1-2 (from UniProt Q99PJ1 27-259) (domain or fragment)", "values": [{"measurement": "zero-force lifetime", "setting": "[3]", "value": 1.5, "unit": "s"}, {"measurement": "zero-force lifetime", "setting": "[4]", "value": 10, "unit": "s"}]}
{"substance": "Pcdh15 EC1-11 PICA (domain or fragment)", "values": [{"measurement": "stoichiometry N", "setting": "[5]", "value": 2}]}
